Measured values as given in US20240352121A1, “LAIR-1 AGONISTIC ANTIBODIES AND METHODS OF USE THEREOF” (NEXTCURE, INC., priority 2023, published 2024).

Key:
healthy CD34+ cells = experiment: NC525 clustering of LAIR-1 in healthy CD34+ cells; format: cell-based, human
MV4-11 cells = experiment: Digital spatial imaging of bone and spleen of MV4-11 CDX mice; format: in vivo, NSG mice
Text: FIGS. 6A-6D display LAIR-1 signaling restricts AML survival signaling pathways in vivo. […] N=3 mice per group. […] N=6 mice per group. FIG. 6C is representative images of CDX mouse bones stained with DAPI and anti-human CD45 used to quantify the number of MV4-11 cells in the indicated region of interest (ROI) (highlighted). ROI area is equal between samples. […] Read counts are normalized to Histone H3 and ribosomal protein S6. N=3-11 quantified tissue regions across 2 isotype-treated or 2 LAIR-1 mAb-treated mice. Error bars represent standard error of mean. P values determined by Student's T test.
Protocols and reagents from NanoString were used for GeoMx digital spatial imaging (DSP). Briefly, formalin-fixed paraffin-embedded (FFPE) sections of tumor and spleen were deparaffinized and rehydrated, antigen-retrieved in citrate buffer, blocked, and stained with the Human Immune Profiling Core and Cell Death Panel overnight at 37 degrees C. Anti-HCD45-Alexaflour 647 antibody (NBP2-34528AF647 from Novus Biologicals, Centennial, CO) was used as a morphology marker at 5 μg/mL to identify MV4-11 cells. After washing, slides were fixed in 4% paraformaldehyde and nuclei were stained with Syto13. Slides were scanned and regions of interest (human CD45 regions) were acquired on a GeoMx DSP instrument (Nanostring, Seattle, WA). Approximately 5 regions of interest (ROIs) were collected per tissue, and samples were multi-plexed and processed on the nCounter Prep Station and Digital Analyzer as recommended. Data were analyzed on DSP Analysis software. Following quality control, data were normalized to housekeeping genes, and statistics were performed using a linear mixed model with a Benjamin-Hochberg correction.

human LAIR-1 = target: T1, human LAIR-1 (Homo sapiens, UniProt Q6GTX8, D63E/L98P/R92S/S123T); experiment: Cell binding to human LAIR-1 cells by flow cytometry; conditions: UT-140 cells
T1 construct: expressed in transfected cells
T1 sequence (Q6GTX8 22-287 D63E/R92S/L98P/S123T): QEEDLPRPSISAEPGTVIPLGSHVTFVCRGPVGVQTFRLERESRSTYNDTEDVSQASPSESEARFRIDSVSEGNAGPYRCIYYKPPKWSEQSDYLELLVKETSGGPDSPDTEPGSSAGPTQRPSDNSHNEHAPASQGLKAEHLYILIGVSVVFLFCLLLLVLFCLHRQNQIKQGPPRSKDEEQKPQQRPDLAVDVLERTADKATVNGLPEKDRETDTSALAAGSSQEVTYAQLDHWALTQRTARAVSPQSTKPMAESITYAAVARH
Experimental: FIGS. 21A-21B display LAIR-1 binding properties including h11B3 LAIR-1 mAbs binding to cells expressing human LAIR-1 or cynomolgus LAIR-1 as measured by flow cytometry. The h11B3 LAIR-1 mAbs include a variable light chain of SEQ ID NO: 16 and a variable heavy chain of SEQ ID NO: 21, as shown for Anti-LAIR-1 Variant 6 in Table 1 herein. […] Cells were incubated for 30 min on ice with titrated concentrations of h11B3. AF647 conjugated secondary antibody was used at 1:2000 dilution. […] Cells were incubated for 30 min on ice with titrated concentrations of h11B3. AF647 conjugated secondary antibody was used at 1:2000 dilution.
For cell binding assays, 5e4 UT-140 cells or mouse LAIR-1-transfected 293T cells per well were plated in 200 μL PBS in a 96-well round bottom plate, centrifuged for 4 minutes at 500×g for a single wash, and blocked for 10 minutes on ice with flow cytometry buffer (PBS+2% FBS+0.1 mM EDTA) containing 1:50 dilution of TruStain™ Fc block (Biolegend, San Diego, CA). Cells were subsequently stained for 30 min on ice with titrated concentrations of soluble AF647-labeled LAIR-1 mAb or AF647-labeled isotype control. Cells were then washed 3 times as previously described and binding was measured by flow cytometry using an Attune NXT flow cytometer. […] GFP expression was measured by flow cytometry using an Attune NXT Flow Cytometer.

[1] = system: MV4-11-LAIR-1 Overexpressing cells; experiment: In vitro culture of MV4-11-LAIR-1 overexpressing cells with or without anti-IgG crosslinking; format: cell-based, human
Experimental: FIGS. 4A-4O show the collagen matrix is vital to LAIR-1 induced AML cell death. (FIGS. 4A-C). Flow cytometry quantification of primary live, dead, or apoptotic total blood leukocytes after ex vivo treatment with 10 μg/mL IgG isotype control (gray) or LAIR-1 mAb (red) in the presence (FIG. 4A) or absence (FIG. 4B) of exogenous collagen, or (FIG. 4C), CD451^Lo SSC^Lo blast cells in the presence of isotype control or LAIR-1 mAb. N=3 technical replicates. […] Each dot represents an individual donor. Red shading highlights surface expression >20000 arbitrary units. Blue shading highlights expression <20000 units. Line represents simple linear regression. […] N=4-7 donors. […] Mean pixel density from Western blotting normalized to isotype control condition and graphed relative to total SHP-1. N=3 technical replicates. FIGS. 4G and 4H show mean pixel density from phospho-array of AML patient PBMCs treated ex vivo with 10 μg/mL of IgG isotype control (gray), 50 μg/mL coated collagen (white), or 10 μg/mL LAIR-1 mAb+coated collagen (red) for G, MAPK activity or (FIG. 4H), mTOR and NF-kB activity. N=2 technical replicates. […] FIGS. 4M and 4N) 4E-BP1 expression as measured by Lumit assay (FIG. 4M) or cleaved caspase-7 as measured by Western blot (FIG. 4N) of cells treated as shown in FIGS. 4I-4K. Mean pixel density normalized to histone-3 for triplicate samples. […] Values normalized to isotype for each respective condition. n=3-4 technical replicates. P values calculated by Student's t test. Error bars represent SEM.

B1: LAIR-1 mAb: humanized agonist anti-LAIR-1 mAb, IgG1 backbone; h11B3 VL-2 (SEQ ID NO: 16), h11B3 VH-3 (SEQ ID NO: 27) (antibody, V domains shown)
VH: EVQLVESGGGLVQPGGSLKLSCAASGFTFNTNAMYWVRQAPGKGLEWVGRIRSKSSNYATYYAASVKGRFTISRDDSKNTLYLQMNSLKTEDTAVYYCVRGGSGFFAYWGQGTLVTVSS
VL: DIQMTQSPSSLSASLGDRVTITCKASEDIYIRLAWYQQKPGKAPRLLISTATSLETGVPSRFSGSGSGTDYTFTISSLQPEDIATYYCQQYWSTPYTFGGGTRLEIK
modifications: IgG1 constant regions; Synthetic: h11B3 VH-3; Synthetic: h11B3 VL-2
changes in signaling activity (healthy CD34+ cells): minimal changes
AML cells (human CD45+ cells) in the bones (MV4-11 cells; day 22 post-engraftment): reduction
anti-apoptotic BCL-XL (MV4-11 cells; in bones but not the spleen): decreased levels
anti-apoptotic uncleaved PARP (MV4-11 cells; in bones but not the spleen): decreased levels
binding to human LAIR-1 (human LAIR-1): specifically binds
growth of LAIR-1 Overexpressing cells ([1]; LAIR-1 mAb alone, vs isotype control): only moderately suppressed
proliferation of cells ([1]; anti-IgG crosslinking conditions, after 3 days of culture): completely inhibited
4E-BP1 (mTORC1 target protein) ([1]; crosslinking conditions): significant suppression
activated caspase-7 ([1]; crosslinking conditions): substantial increase
